# Results: paper PMC3466776 (Biochemistry, 2012)
# No end group written: not given here.
# Tests used:
# Assay in all cases: stopped-flow fluorescence
# [1] = target: N-lobe mutant of calmodulin (CaM12) (rat, UniProt P0DP29 1-149, D20 to alanine | D56 to alanine)
# [2] = target: wild-type calmodulin (His-CaM) (rat, UniProt P0DP29 1-149)
# [3] = target: C-lobe mutant of calmodulin (CaM34) (rat, UniProt P0DP29 1-149, D93 to alanine | D129 to alanine)
binding result [1],binding result [2],binding result [3],Binder
binds,binds,–,GSRPQRLLWQTAVRHITEQRFIHGH-NH2 [AC8-Nt peptide]
binds,binds,–,IKPAKRMKFKTVCYLLVQLMHCRKMFKA (C-terminal amide) [AC1-C1b peptide]
–,binds,binds,YSLAAVVLGLVQSLNRQRQKQLLNE-NH2 [AC8-C2b peptide]
